According to paper doi:10.1101/2024.11.27.625625 (bioRxiv, 2024):

T1: TolR with an octahistidine-tag at the C-terminus (E. coli, UniProt P0ABV6 1-142)
T1 sequence: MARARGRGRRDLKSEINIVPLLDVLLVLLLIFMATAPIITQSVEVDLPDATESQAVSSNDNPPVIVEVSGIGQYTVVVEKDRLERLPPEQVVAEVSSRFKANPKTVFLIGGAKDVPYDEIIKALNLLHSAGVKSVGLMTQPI

B1: TolA (natural protein, E. coli, UniProt P19934 1-421, looked up)
chain: MSKATEQNDKLKRAIIISAVLHVILFAALIWSSFDENIEASAGGGGGSSIDAVMVDSGAVVEQYKRMQSQESSAKRSDEQRKMKEQQAAEELREKQAAEQERLKQLEKERLAAQEQKKQAEEAAKQAELKQKQAEEAAAKAAADAKAKAEADAKAAEEAAKKAAADAKKKAEAEAAKAAAEAQKKAEAAAAALKKKAEAAEAAAAEARKKAATEAAEKAKAEAEKKAAAEKAAADKKAAAEKAAADKKAAEKAAAEKAAADKKAAAEKAAADKKAAAAKAAAEKAAAAKAAAEADDIFGELSSGKNAPKTGGGAKGNNASPAGSGNTKNNGASGADINNYAGQIKSAIESKFYDASSYAGKTCTLRIKLAPDGMLLDIKPEGGDPALCQAALAAAKLAKIPKPPSQAVYEVFKNAPLDFKP
B2: TolQ (natural protein, E. coli)
chain: MTDMNILDLFLKASLLVKLIMLILIGFSIASWAIIIQRTRILNAAAREAEAFEDKFWSGIELSRLYQESQGKRDNLTGSEQIFYSGFKEFVRLHRANSHAPEAVVEGASRAMRISMNRELENLETHIPFLGTVGSISPYIGLFGTVWGIMHAFIALGAVKQATLQMVAPGIAEALIATAIGLFAAIPAVMAYNRLNQRVNKLELNYDNFMEEFTAILHRQAFTVSESNKG

What was measured:
TolQ = target: B2; test: co-purification
[1] = target: T1, TolR with an octahistidine-tag at the …; test: co-purification
cryo-EM structure = target: the molecule itself; test: cryo-EM structure

| Binder | stoichiometry N (TolQ) [TolQ per TolA] | stoichiometry N [1] [TolR per TolA] | stoichiometry N (cryo-EM structure) |
| --- | --- | --- | --- |
| B1 | ~4.5 | ~1.5 | – |
| B2 | – | – | 5 |
